Laboratory results taken from paper PMC4670726, “Systematic discovery of linear binding motifs targeting an ancient protein interaction surface on MAP kinases” (Molecular Systems Biology, 2015).
Ends that are not written are not given here.

B1: pepMK2, labeled reporter peptide (peptide)
peptide: IKIKKIEDASNPLLLKRRKK
modifications: also: N-terminally labeled with carboxyfluorescein or carboxytetramethylrhodamine
notes: docking peptide of MK2; source: synthetic peptide
B2: pepMEF2A, labeled reporter peptide (peptide)
peptide: SRKPDLRVVIPPS
modifications: also: N-terminally labeled with carboxyfluorescein or carboxytetramethylrhodamine
notes: docking peptide of MEF2A; source: synthetic peptide
B3: pepRSK1, labeled reporter peptide (peptide)
peptide: PQLKPIESSILAQRRVRKLPSTTL
modifications: also: N-terminal label: carboxyfluorescein or carboxytetramethylrhodamine
notes: docking peptide of RSK1; source: synthetic peptide

What was measured:
[1] = molecular target: T1, p38α (as used in the fluorescence polarization titrations) (human, UniProt Q16539 1-360); test: fluorescence polarisation; competition: 50 nM N-terminally labeled reporter peptide mixed with MAPK at ~60–80% complex formation, increasing amounts of unlabeled synthetic test peptide added; 384-well plates, triplicates; Ki from a competition binding equation; settings: both partners purified
T1 construct: p38α; the FP methods say only 'MAPKs'

[2] = molecular target: T2, ERK2 (as used in the fluorescence polarization titrations) (human, UniProt P28482 1-360); test: as above; settings: both partners purified
T2 construct: ERK2; the FP methods say only 'MAPKs'
T2 sequence (P28482 whole entry): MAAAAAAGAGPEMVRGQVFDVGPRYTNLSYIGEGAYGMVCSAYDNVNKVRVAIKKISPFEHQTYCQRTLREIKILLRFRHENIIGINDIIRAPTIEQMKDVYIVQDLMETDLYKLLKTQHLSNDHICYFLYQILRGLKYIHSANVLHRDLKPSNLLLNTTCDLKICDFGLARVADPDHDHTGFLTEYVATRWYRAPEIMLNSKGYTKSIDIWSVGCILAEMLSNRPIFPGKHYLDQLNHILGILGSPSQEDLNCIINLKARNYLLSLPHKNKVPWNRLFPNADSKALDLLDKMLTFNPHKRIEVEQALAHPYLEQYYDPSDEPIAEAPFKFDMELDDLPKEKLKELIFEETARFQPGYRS

T1 sequence (Q16539 whole entry): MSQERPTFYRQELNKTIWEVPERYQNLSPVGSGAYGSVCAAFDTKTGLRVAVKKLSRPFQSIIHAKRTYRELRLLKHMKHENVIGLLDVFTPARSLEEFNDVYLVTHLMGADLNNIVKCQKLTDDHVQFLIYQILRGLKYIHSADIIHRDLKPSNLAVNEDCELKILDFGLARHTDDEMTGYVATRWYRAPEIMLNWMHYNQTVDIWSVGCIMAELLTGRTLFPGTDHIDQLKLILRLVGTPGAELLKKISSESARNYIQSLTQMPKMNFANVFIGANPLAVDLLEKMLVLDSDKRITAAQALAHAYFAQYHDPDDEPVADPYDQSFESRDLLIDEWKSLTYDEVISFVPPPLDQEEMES

Binder | binding result [1] | binding result [2]
B1 | binds | 
B2 | binds | 
B3 |  | binds
